Consider two molecules from article PMC7170532 (2020).

In one experiment the target is latent myostatin (human, UniProt O14793 267-375). Description: BLI. In general terms: BLI is a label-free optical method that tracks binding on a fibre tip over time.
Experiment [1] deals with T1, pro-myostatin (uncleavable precursor, D99A/R263A/R266A) (human, UniProt O14793 24-375, D99A | R263A | R266A).
T1 sequence: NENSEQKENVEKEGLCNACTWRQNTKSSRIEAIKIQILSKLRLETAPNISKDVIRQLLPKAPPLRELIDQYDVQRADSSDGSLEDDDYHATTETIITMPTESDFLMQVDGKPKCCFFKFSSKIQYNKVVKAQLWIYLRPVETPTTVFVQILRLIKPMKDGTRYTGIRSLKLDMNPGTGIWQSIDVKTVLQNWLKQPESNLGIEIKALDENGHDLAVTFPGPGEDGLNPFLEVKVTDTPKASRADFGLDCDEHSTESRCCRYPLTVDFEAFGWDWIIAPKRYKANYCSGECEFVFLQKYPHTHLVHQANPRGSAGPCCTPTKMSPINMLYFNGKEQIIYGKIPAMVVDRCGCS
Description: BLI.

B1: 29H4-16 human IgG4 (antibody, V domains shown)
VH: QIQLVQSGGGVVQPGRSLRLSCAASGFTFSSYGMHWVRQAPGKGLEWVAVISYDGSRKYYADSVKGRFTISRDNSKNTLYLQMNSLRAEDTAVYYCARDLLVRFLYWSHYYGMDVWGQGTTVTVSS
VL: QPVLTQPPSASGTPGQRVTISCSGSSSNIGSNPVHWYQQLPGTAPKLLIYDDNQRPSGVPDRFSGSKSGTSASLVISGLQSDDEADYYCAAWDDSLNSVFGGGTKLTVL
What is called Kd is the equilibrium constant for the complex coming apart. Lower therefore signals a tighter complex. For B1, the Kd (in the experiment with latent myostatin; in experiment [1]) was below 0.001 nM throughout.

B2: 29H4-16 Fab (Fab, V domains shown)
VH: QIQLVQSGGGVVQPGRSLRLSCAASGFTFSSYGMHWVRQAPGKGLEWVAVISYDGSRKYYADSVKGRFTISRDNSKNTLYLQMNSLRAEDTAVYYCARDLLVRFLYWSHYYGMDVWGQGTTVTVSS
VL: QPVLTQPPSASGTPGQRVTISCSGSSSNIGSNPVHWYQQLPGTAPKLLIYDDNQRPSGVPDRFSGSKSGTSASLVISGLQSDDEADYYCAAWDDSLNSVFGGGTKLTVL
Consider B2, for which the values for the Kd (with latent myostatin; in experiment [1]) were 1.76 nM and 1.51 nM, respectively.
